Data reported in US20190038623A1.

Columns and labels:
[1] = target: complement component C3 (human) (UniProt P01024); assay: cell-based or functional assay
[2] = target: human complement component C5 (human) (UniProt P01031); assay: cell-based or functional assay

## Compstatin (peptide)
[1]
  IC50 (µM), Inhibition of C3 Fragment deposition on artificial PNH cells (flow cytometry, anti-C3c staining, N = 2): 2.2 µM
  IC50 (µM), Inhibition of C3 Fragment deposition on rabbit erythrocytes (flow cytometry, 20% C5-depleted normal human serum), N = 1: 1.4 µM
  Inhibition (%) of CAP activity, CAP-mediated hemolysis of rabbit erythrocytes, Experiment 2, Compstatin 0.469 µM, Compound 1 0 µM: 6.9%
  Inhibition (%) of CAP activity, CAP-mediated hemolysis of rabbit erythrocytes, Experiment 2, Compstatin 0.934 µM, Compound 1 0 µM: 6%
  Inhibition (%) of CAP activity, CAP-mediated hemolysis of rabbit erythrocytes, Experiment 2, Compstatin 1.88 µM, Compound 1 0 µM: 10%
  Inhibition (%) of CAP activity, CAP-mediated hemolysis of rabbit erythrocytes, Experiment 2, Compstatin 3.75 µM, Compound 1 0 µM: 15%
  Inhibition (%) of CAP activity, CAP-mediated hemolysis of rabbit erythrocytes, Experiment 2, Compstatin 7.5 µM, Compound 1 0 µM: 41%
  Inhibition (%) of CAP activity, CAP-mediated hemolysis of rabbit erythrocytes, Experiment 2, Compstatin 15 µM, Compound 1 0 µM: 80%
  Inhibition (%) of CAP activity, CAP-mediated hemolysis of rabbit erythrocytes, Experiment 2, Compstatin 30 µM, Compound 1 0 µM: 98%
  Inhibition (%) of CAP activity, CAP-mediated hemolysis of rabbit erythrocytes, Experiment 3, Compstatin 0.469 µM, Compound 1 0 µM: 13%
  Inhibition (%) of CAP activity, CAP-mediated hemolysis of rabbit erythrocytes, Experiment 3, Compstatin 0.934 µM, Compound 1 0 µM: 17%
  Inhibition (%) of CAP activity, CAP-mediated hemolysis of rabbit erythrocytes, Experiment 3, Compstatin 1.88 µM, Compound 1 0 µM: 25%
  Inhibition (%) of CAP activity, CAP-mediated hemolysis of rabbit erythrocytes, Experiment 3, Compstatin 3.75 µM, Compound 1 0 µM: 40%
  Inhibition (%) of CAP activity, CAP-mediated hemolysis of rabbit erythrocytes, Experiment 3, Compstatin 7.5 µM, Compound 1 0 µM: 63%
  Inhibition (%) of CAP activity, CAP-mediated hemolysis of rabbit erythrocytes, Experiment 3, Compstatin 15 µM, Compound 1 0 µM: 97%
  Inhibition (%) of CAP activity, CAP-mediated hemolysis of rabbit erythrocytes, Experiment 3, Compstatin 30 µM, Compound 1 0 µM: 98%
  Inhibition (%) of CAP activity, CAP-mediated hemolysis of rabbit erythrocytes, Experiment 4, Compstatin 0.469 µM, Compound 1 0 µM: 9%
  Inhibition (%) of CAP activity, CAP-mediated hemolysis of rabbit erythrocytes, Experiment 4, Compstatin 0.934 µM, Compound 1 0 µM: 12%
  Inhibition (%) of CAP activity, CAP-mediated hemolysis of rabbit erythrocytes, Experiment 4, Compstatin 1.88 µM, Compound 1 0 µM: 22%
  Inhibition (%) of CAP activity, CAP-mediated hemolysis of rabbit erythrocytes, Experiment 4, Compstatin 3.75 µM, Compound 1 0 µM: 34%
  Inhibition (%) of CAP activity, CAP-mediated hemolysis of rabbit erythrocytes, Experiment 4, Compstatin 7.5 µM, Compound 1 0 µM: 64%
  Inhibition (%) of CAP activity, CAP-mediated hemolysis of rabbit erythrocytes, Experiment 4, Compstatin 15 µM, Compound 1 0 µM: 98%
  Inhibition (%) of CAP activity, CAP-mediated hemolysis of rabbit erythrocytes, Experiment 4, Compstatin 30 µM, Compound 1 0 µM: 99%
  Inhibition (%) of CAP activity, CAP-mediated hemolysis of rabbit erythrocytes, Experiment #1, Compstatin 0.469 µM, Compound 1 0 µM: 7.3%
  Inhibition (%) of CAP activity, CAP-mediated hemolysis of rabbit erythrocytes, Experiment #1, Compstatin 0.934 µM, Compound 1 0 µM: 3.6%
  Inhibition (%) of CAP activity, CAP-mediated hemolysis of rabbit erythrocytes, Experiment #1, Compstatin 1.88 µM, Compound 1 0 µM: 8.6%
  Inhibition (%) of CAP activity, CAP-mediated hemolysis of rabbit erythrocytes, Experiment #1, Compstatin 3.75 µM, Compound 1 0 µM: 17%
  Inhibition (%) of CAP activity, CAP-mediated hemolysis of rabbit erythrocytes, Experiment #1, Compstatin 7.5 µM, Compound 1 0 µM: 38%
  Inhibition (%) of CAP activity, CAP-mediated hemolysis of rabbit erythrocytes, Experiment #1, Compstatin 15 µM, Compound 1 0 µM: 65%
  Inhibition (%) of CAP activity, CAP-mediated hemolysis of rabbit erythrocytes, Experiment #1, Compstatin 30 µM, Compound 1 0 µM: 98%
  Inhibition (%) of CAP-mediated hemolysis of PNH erythrocytes, Experiment 2, Compstatin 4.69 µM alone (Compound 1 0 µM): 0%
  Inhibition (%) of CAP-mediated hemolysis of PNH erythrocytes, Experiment 2, Compstatin 9.38 µM alone (Compound 1 0 µM): 0%
  Inhibition (%) of CAP-mediated hemolysis of PNH erythrocytes, Experiment 2, Compstatin 18.8 µM alone (Compound 1 0 µM): 0%
  Inhibition (%) of CAP-mediated hemolysis of PNH erythrocytes, Experiment 2, Compstatin 37.5 µM alone (Compound 1 0 µM): 0%
  Inhibition (%) of CAP-mediated hemolysis of PNH erythrocytes, Experiment 2, Compstatin 75 µM alone (Compound 1 0 µM): 10%
  Inhibition (%) of CAP-mediated hemolysis of PNH erythrocytes, Experiment 2, Compstatin 150 µM alone (Compound 1 0 µM): 71%
  Inhibition (%) of CAP-mediated hemolysis of PNH erythrocytes, Experiment 2, Compstatin 300 µM alone (Compound 1 0 µM): 99%
  Inhibition (%) of CAP-mediated hemolysis of PNH erythrocytes, Experiment #1, Compstatin 4.69 µM alone (Compound 1 0 µM): 0%
  Inhibition (%) of CAP-mediated hemolysis of PNH erythrocytes, Experiment #1, Compstatin 9.38 µM alone (Compound 1 0 µM): 0%
  Inhibition (%) of CAP-mediated hemolysis of PNH erythrocytes, Experiment #1, Compstatin 18.8 µM alone (Compound 1 0 µM): 0%
  Inhibition (%) of CAP-mediated hemolysis of PNH erythrocytes, Experiment #1, Compstatin 37.5 µM alone (Compound 1 0 µM): 0%
  Inhibition (%) of CAP-mediated hemolysis of PNH erythrocytes, Experiment #1, Compstatin 75 µM alone (Compound 1 0 µM): 9%
  Inhibition (%) of CAP-mediated hemolysis of PNH erythrocytes, Experiment #1, Compstatin 150 µM alone (Compound 1 0 µM): 86%
  Inhibition (%) of CAP-mediated hemolysis of PNH erythrocytes, Experiment #1, Compstatin 300 µM alone (Compound 1 0 µM): 98%

## murine monoclonal antibody to human C5, isotype IgG1K, product No. A217 from Quidel
[2]
  Inhibition (%) of CAP activity, CAP Wieslab assay, Experiment 2, Anti-C5 0.781 µg/mL, Compound 1 0 µM: 8.1%
  Inhibition (%) of CAP activity, CAP Wieslab assay, Experiment 2, Anti-C5 1.56 µg/mL, Compound 1 0 µM: 20%
  Inhibition (%) of CAP activity, CAP Wieslab assay, Experiment 2, Anti-C5 3.13 µg/mL, Compound 1 0 µM: 46%
  Inhibition (%) of CAP activity, CAP Wieslab assay, Experiment 2, Anti-C5 6.25 µg/mL, Compound 1 0 µM: 61%
  Inhibition (%) of CAP activity, CAP Wieslab assay, Experiment 2, Anti-C5 12.5 µg/mL, Compound 1 0 µM: 75%
  Inhibition (%) of CAP activity, CAP Wieslab assay, Experiment 2, Anti-C5 25 µg/mL, Compound 1 0 µM: 85%
  Inhibition (%) of CAP activity, CAP Wieslab assay, Experiment 2, Anti-C5 50 µg/mL, Compound 1 0 µM: 90%
  Inhibition (%) of CAP activity, CAP Wieslab assay, Experiment 3, Anti-C5 0.781 µg/mL, Compound 1 0 µM: 10%
  Inhibition (%) of CAP activity, CAP Wieslab assay, Experiment 3, Anti-C5 1.56 µg/mL, Compound 1 0 µM: 16%
  Inhibition (%) of CAP activity, CAP Wieslab assay, Experiment 3, Anti-C5 3.13 µg/mL, Compound 1 0 µM: 31%
  Inhibition (%) of CAP activity, CAP Wieslab assay, Experiment 3, Anti-C5 6.25 µg/mL, Compound 1 0 µM: 45%
  Inhibition (%) of CAP activity, CAP Wieslab assay, Experiment 3, Anti-C5 12.5 µg/mL, Compound 1 0 µM: 64%
  Inhibition (%) of CAP activity, CAP Wieslab assay, Experiment 3, Anti-C5 25 µg/mL, Compound 1 0 µM: 79%
  Inhibition (%) of CAP activity, CAP Wieslab assay, Experiment 3, Anti-C5 50 µg/mL, Compound 1 0 µM: 90%
  Inhibition (%) of CAP activity, CAP Wieslab assay, Experiment #1, Anti-C5 0.547 µg/mL, Compound 1 0 µM: 11%
  Inhibition (%) of CAP activity, CAP Wieslab assay, Experiment #1, Anti-C5 1.09 µg/mL, Compound 1 0 µM: 11%
  Inhibition (%) of CAP activity, CAP Wieslab assay, Experiment #1, Anti-C5 2.19 µg/mL, Compound 1 0 µM: 27%
  Inhibition (%) of CAP activity, CAP Wieslab assay, Experiment #1, Anti-C5 4.38 µg/mL, Compound 1 0 µM: 47%
  Inhibition (%) of CAP activity, CAP Wieslab assay, Experiment #1, Anti-C5 8.75 µg/mL, Compound 1 0 µM: 60%
  Inhibition (%) of CAP activity, CAP Wieslab assay, Experiment #1, Anti-C5 17.5 µg/mL, Compound 1 0 µM: 76%
  Inhibition (%) of CAP activity, CAP Wieslab assay, Experiment #1, Anti-C5 35 µg/mL, Compound 1 0 µM: 87%
